# Molecular target: T1, Pox5 (Candida tropicalis, UniProt P08790)
# T1 construct: made in house; host or cells: E. coli Rosetta II BL21, pET26b; crude cell lysate (10 ug per reaction)
# Type: biochemical, Candida strain ATCC20336
# Method: To express an enzyme, a colony from each transformation of Rosetta cells was used to start a 5 ml overnight culture of LB containing the antibiotics kanamycin (to select for pET26b) and chloramphenicol (to select for a second plasmid found in Rosetta II cells that mediates improved translation of eukaryotic proteins expressed in E. coli) grown at 37° C. The next morning, the overnight culture was used to seed 30 ml of LB containing kanamycin and chloramphenicol to an OD600 reading of 0.1. The 30 ml cultures were grown at 37° C. for 2 hours and then placed on ice for 10 minutes. To induce expression, isopropyl-beta-D-thiogalactopyranoside (IPTG) was added to the culture to a final concentration of 0.1 mM. In some cases induction was performed using Novagen Overnight Express Autoinduction System 1 (CAT#71300-3). The cells were then shaken at 15° C. overnight to express the acyl CoA oxidase.
# To test the activity of the acyl CoA oxidase, cells from the overnight induction were pelleted at 1046×g at 4° C. in 50 ml conical tubes. The cell pellets were resuspended in 1 ml of 50 mM KPO4, pH 7.6, 50 μM FAD buffer and then transferred to a 2 ml centrifuge tube. A Misonix Sonicator 3000 (QSonica, Newtown, Conn.) was used to lyse the cells, which were sonicated at a power setting of 2 for 2 pulses of 20 seconds each. The lysates were placed on ice for 30 seconds in between each pulse. To obtain a supernatant, cell debris was pelleted at […] for 10 mins in a 4° C. microcentrifuge. The supernatant was transferred to a 1.5 ml centrifuge tube and Bradford assays (Thermoscientific) were performed on cell lysates according to manufacturer's specifications to determine protein concentration in preparation for the acyl-CoA oxidase assays. A Beckman Coulter DTX-800 Multimode Detector spectrophotometer was used for the assays. The spectrophotometer was set to read for 5 minutes at 500 nm, 30° C. Each reaction was 200 μl in volume and contained 10 μg of cell lysate in 50 mM KPO4, pH 7.6, […] BSA, 0.05% Triton X-100, 250 μM fatty acyl-coA substrate, 50 μM FAD, 10 U horseradish peroxidase, 25 mM p-hydroxybenzoic acid and 1 mM 4-aminoantipyrine. Fatty acyl-CoA substrates covered a range from hexanoyl CoA (six carbon chain length) to oleoyl CoA (eighteen carbon chain length).
# Pox4 and Pox5 from Candida strain ATCC20336 were cloned into pET26b for expression in E. coli and assayed for acyl CoA oxidase activity in vitro. The activity profiles of the genetically modified Pox4 and Pox5 were compared to the activity profile of the wild type enzymes. To alter their substrate activity profile, site directed mutagenesis was performed on several locations in Pox4 and Pox5. Complementary primers encoding the point mutation(s) were used to amplify the coding sequences of Pox4 or Pox5 generating two to four PCR products that were then “stitched” together to regenerate the entire coding region using overlap extension PCR (FIG. 22). […] PCR was performed using oligonucleotides A and B to produce a product with overlap to a PCR product generated using oligonucleotides C and D. The A-B product was used as a primer for the C-D product, and vice versa, for overlap extension. Several mutagenic primer pairs, for example, like the B-C primer pair, were used to produce mutations at different locations that were “stitched” together, i.e. A-B, C-D, E-F, etc. to generate an intact, full length coding region. […]
# [1] = wild type, expressed in E. coli
substance,measurement,setting,value
Pox5: native acyl-CoA oxidase isozyme of Candida strain ATCC20336,activity on C6 and C8 substrates,"FIG. 21, wild type",low activity
same,activity on substrates below C10,"FIG. 21, wild type",decrease in activity
same,substrate specificity,native isozyme,narrow substrate specificity
same,activity on a C6 substrate,[1],not very active
same,substrates on which active,[1],C8 all the way to C18:1
